# Several values for one entry are separate records, joined by “and”; a condition that tells them apart may be missing. Identical values can stand only once. Like-named read-outs stand apart in the source and are kept apart here.
# Key:
# [1] = Stability of insulin in simulated intestinal fluid, HPLC
# Protocol: The SIF solutions were prepared with and without pancreatic enzyme. SIF pH 7.5 was prepared as per the USP NF 26 guidelines. SIF was prepared by addition of 6.8 g monobasic potassium phosphate and 10 g of pancreatin into a suitable vessel, and deionized water was added to reach a total volume of one liter. If necessary, the pH was adjusted to 7.5 by addition of 0.2 N sodium hydroxide. A second SIF solution omitting the pancreatin, an intestinal enzyme, was also prepared.
# Four 50 ml samples of SIF (two with pancreatin and two without) were placed into a jacketed vessel connected to a circulating water bath set at 37° C. The solutions were stirred with magnetic stir bars for ten minutes to allow the solutions to reach 37° C. and reach thermal equilibrium.
# [2] = Insulin and 4-CNAB stability in simulated gastric fluid, HPLC; conditions: for Insulin % of theoretical: SGF
# Protocol: The SGF was prepared with and without pepsin, a gastric enzyme. SGF pH 1.2 was prepared as per the USP NF 26 guidelines. 2 g sodium chloride and 3.2 g of pepsin were weighed and added to a suitable container, and deionized water was added to reach one liter in volume. If necessary, the pH was adjusted to 1.2 by addition of concentrated HCl or NaOH. A second SGF solution omitting the pepsin was also prepared.
# Four 50 ml samples of SGF (two with pepsin and two without) were placed into a jacketed vessel connected to a circulating water bath set at 37° C. The solutions were stirred with magnetic stir bars for ten minutes to allow the solutions to reach 37° C. and reach thermal equilibrium.
# The term “% of theoretical” as used herein, means the percent of the concentration (mg/mL) of withdrawn solution at the time-point the sample was taken as compared to the theoretical concentration (mg/mL) of the measuring component for experiment. The standard of deviation for the HPLC analysis is ±5%.
# [3] = for AUC0->∞ / C0: individual animals
# Source text: (§1) This value was assumed to be constant in the estimates of absolute bioavailability.
# [4] = Source text: as §1
# (§2) The portal bioavailability provides an estimate of drug absorption from oral delivery. […] This value is used to estimate bioavailability relative to subcutaneous.
# [5] = Estimates of bioavailability (absolute, portal, relative to subcutaneous); conditions: rat model
# Source text: as §1, §2
# [6] = Insulin from subcutaneous (SC) administration; conditions: insulin dose 0.05 mg/kg
# Source text: as §1, §2
substance,measurement,setting,value
Insulin: Recombinant human zinc insulin,stability of insulin,[1]; SIF in presence of the enzyme (pancreatin),degrades
same,stability of insulin,[1]; SIF without pancreatin,stable
same,Insulin % of theoretical,"[1]; SIF, insulin with 4-CNAB and enzymes (pancreatin), 6 minutes",5.4%
same,insulin degraded,"[2]; SGF containing pepsin, first sampling point",97%
same,insulin remained,"[2]; SGF containing pepsin, first sampling point (0 minutes), 37° C.",3.0%
same,time insulin is stable,[2]; SGF without pepsin,≥ 2 h
same,Insulin % of theoretical,"[2]; insulin with 4-CNAB and enzymes (pepsin), 37° C., 0 minutes",3.0%
same,Insulin % of theoretical,"[2]; insulin with 4-CNAB and no enzymes, 24 h",0%
same,Insulin % of theoretical,"[2]; insulin without 4-CNAB and with enzymes (pepsin), 37° C., 0 minutes",3.0%
same,Insulin % of theoretical,"[2]; insulin without 4-CNAB and without enzymes, 24 h",0%
same,"C0->∞/Dose, Average","[3]; IV, all doses (2.5, 8, 9 μg/kg)",0.0053 kg/mL
same,AUC0->∞,"[3]; IV, dose 8 μg/kg",99.35 ng·min/mL and 99.32 ng·min/mL and 103.4 ng·min/mL
same,C0,"[3]; IV, dose 8 μg/kg",50.67 ng/mL and 52.64 ng/mL and 49.63 ng/mL
same,"AUC0->∞, X ± SD","[3]; IV, dose 8 μg/kg, n = 3",100.7 ± 2.4 ng·min/mL
same,"AUC0->∞/Dose, X ± SD","[3]; IV, dose 8 μg/kg, n = 3",0.0126 ± 0.0003 kg·min/mL
same,"Vd, X ± SD","[3]; IV, dose 8 μg/kg, n = 3",0.157 ± 0.005 L/kg
same,AUC0->∞,"[3]; IV, dose 9 μg/kg",99.55 ng·min/mL and 75.67 ng·min/mL and 122.89 ng·min/mL
same,C0,"[3]; IV, dose 9 μg/kg",46.79 ng/mL and 36.32 ng/mL and 55.30 ng/mL
same,"AUC0->∞, X ± SD","[3]; IV, dose 9 μg/kg, n = 3",99.4 ± 23.6 ng·min/mL
same,"AUC0->∞/Dose, X ± SD","[3]; IV, dose 9 μg/kg, n = 3",0.0110 ± 0.0026 kg·min/mL
same,"C0, X ± SD","[3]; IV, dose 9 μg/kg, n = 3",46.1 ± 9.5 ng/mL
same,"Vd, X ± SD","[3]; IV, dose 9 μg/kg, n = 3",0.201 ± 0.043 L/kg
same,"kel, X ± SD","[3]; IV, dose 9 μg/kg, n = 3",0.47 ± 0.02 min⁻¹
same,"AUC0->∞/Dose, X ± SD","[3]; IV, dose […], n = 5",0.0062 ± 0.0011 kg·min/mL
same,"Vd, X ± SD","[3]; IV, dose […], n = 5",0.219 ± 0.068 L/kg
same,average insulin AUC0→∞/Dose,[3]; intravenous dosing,0.0093 kg·min/mL
same,FPE (fH),[4]; individual animals,0.18
same,"AUC-IP, Average","[4]; portal administration, n = 5",9.65
same,maximum absolute bioavailability from oral delivery (100% GI absorption into the portal vein),"[4]; rat model, from intraportal administration",approximately 60%
same,"AUC-JV, Average","[4]; systemic administration, n = 5",15.53
same,absolute bioavailability from SC,[5],approximately 56%
same,Tmax,"[6]; per study, 0.05 mg/kg",30 min
same,Glucose,"[6]; time 0, study mean, 0.05 mg/kg",83 mg/dL and 73 mg/dL and 60 mg/dL and 68 mg/dL and 65 mg/dL and 70 mg/dL
same,Glucose,"[6]; time 15, study mean, 0.05 mg/kg",66 mg/dL and 42 mg/dL and 40 mg/dL and 45 mg/dL and 59 mg/dL
same,Glucose,"[6]; time 30, study mean, 0.05 mg/kg",60 mg/dL and 59 mg/dL and 38 mg/dL and 39 mg/dL and 64 mg/dL
same,Glucose,"[6]; time 45, study mean, 0.05 mg/kg",61 mg/dL and 64 mg/dL and 42 mg/dL and 36 mg/dL and 40 mg/dL and 69 mg/dL
same,Insulin,"[6]; time 180, study mean",8.30 uU/ml

# Reference: patent US20120189666A1, “PHARMACEUTICAL FORMULATIONS CONTAINING MICROPARTICLES OR NANOPARTICLES OF A DELIVERY AGENT” (priority 2004, published 2012)
